This passage reports protein production results from a protein production outcome set (Wang et al. 2014).

The series in a line: label from the status in PepcDB records.
With “MFELLFLLLPIAALYGWYIGRLSVKKEQESINNKFSRDYVTGLNFLLSNQQEKAVDLFLSMLQKQESENQIATESQFEAELTLGNLFRSRGEVDRALRIHQALDSSLNYSIEQKLLAKQQLAKDFMAAGFYDRAENYYILLLDEPEFAVNSLTQLMVLYQKTNEWKKAINVAEKLLKIDPKTDRIPLSHYYCEYAQAIKSEDEDLYLRLLGKALEYSPLCTRASMLLGDYYLAQGQFSQALTHFEHILVQDPDYISEVLHNIKTCHAALHDFINYELFLIRSNQVKHNSSVDIALAELIEQKDGLIAAHSKLYQQLSKYPSMLIFHRFIYYQINEAEEGSAKESLVLLHNMVGARIKKSFQYRCLNCGYQSYRLSWYCPSCRQWEQIKPINGIDSY”, the protein production entry is reported as “failed”.

Take “MGEEEAVAEENGGLKVESGEQKSSWPTMRFDVSPYRTHHFSKQFRTARNPNNFLKGLKWSPDGSCFLASSEDNTLSLFHLPQDGGDSNGYGVPVPEEDSYGASLLVNEGESVYDFCWYPYMSVSDPLTCVFATSTRDHPIHLWDSTSGELRCTYRAYDAMDEITAAFSVGFNPDGTKIFAGYNSSIRVFDLHRPGRDFRQYSTLQKNKEGQAGILSTLAFSPTNSGMLAVGSYGQTTGIYREDNMELLYVLHGQEGGVTHVQFSKDGNYLYTGGRKDPYILCWDIRKSVEIVYKLYRATENTNQRVFFDIEPCGRHLGTGGQDGLVHMYDLQTGNWVSGYQAASDTVNAFSFHPYLPMAATSSGHRRFAIPDDDDGEDKNELQLKADENCVSLWSFYVEDNTYDENNGVASESHLQNVTEEIVLT”: the protein production result is listed as “failed”.

Regarding “GQRVLFGSGEAAQNLAAEISRLDAKNVMVVAGDFELPMARQVAADIDVKVWHSNVVMHVPIETAEEARSVAKENDIDVVVCVGGGSTTGLAKAIAMTTALPIIAVPTTYAGSEATNVWGLTEAARKTTGVDNKVLPVTVIYDSALTMSLP”, the protein production entry is listed as “not failed”.

For “MGNGVQPLDPVAIQIGSISVKWYGVIIASAVVIALLLALSEANKRKMDKEIIVDLLIWAIPISIISARIYYVIFEWDFYKNNLGEIVKIWHGGIAIYGALIGAVLTAIIFSRIKKISFWQLADVVAPSLIIAQAIGRWGNFMNQEAHGAETTRSFLESLHLPDFIINQMYIDGAYYQPTFLYESLWNVLGFVILLIIRRTKIRRGELFLGYVIWYSFGRFFIEGMRTDSLMWGDFRVSQALSLLLIVLSIGIIIYRRLKMNPPYYMEDKFGKVVKKK”, the protein production result is on record as “not failed”.

On to “MMVDTGVDHRAVSSHDGPDAGRRVFGAADPRFACVVRAFASMFPGRRFGGGALAVYLDGQPVVDVWKGWADRAGWVPWSADSAPMVFSATKGMTATVIHRLADRGLIDYEAPVAEYWPAFGANGKATLTVRDVMRHQAGLSGLRGATQQDLLDHVVMEERLAAAVPGRLLGKSAYHALTFGWLMSGLARAVTGKDMRLLFREELAEPLDTDGLHLGRPPADAPTRVAEIIMPQDIAANAVLTCAMRRLAHRFSGGFRSMYFPGAIAAVQGEAPLLDAEIPAANGVATARALARMYGAIANGGEIDGIRFLSRELVTGLTRNRRQVLPDRNLLVPLNFHLGYHGMPIGNVMPGFGHVGLGGSIGWTDPETGVAFALVHNRLLSPLVMTDHAGFVGIYHLIRQAAAQARKRGYQPVTPFGAPYSEPGAAAG”, for which the protein production result was “failed”.

Turning to “MSIGLSLTFGLYLLVLVGIGVYFFLRTETRRLTDYMLAGRDVGTWPLALSEVASVASGWTFFAWVGVGFTTGLHGLWFSMAMLVVVLFLYRYVAPTFRRQSEALDSQTVVDHLALVFRDSPWGPRIRWTATLAVVVFMASYIGAQIIAVGEAMETGLGLNYAVSVGAGGLAVALYTTLGGFDASVWTDFVQGLLVILAALALPLVAIAEIGGWGAFVTAVRAADPTLLSMTAGQTGTALALSVGSWLAFALGALGQPHGLMRFQAIRSERLLSRASVIALAFQALRLTVPLFIGMAGRVLYGSMNDPESAAMEMMVQLFPDWFAGLLLAGIIGAVLSTSDSMMLVTSADLTRLYETQLAGGVLPARMIRLGRGIVGVMALLGVGLAYWRPGTIFDIIEFAFVGLGATLGLPLAFLVLWPRTTGAGVFAAVAAGLGSAVGNLYLSPATFPILVWPITLTAFLGASYATAPSSPVTASSS”, the protein production result is “failed”.

As for “MNQVVEFLKIFIPLFIVIDPFGSLVLFTSMTYNFNESEKLRATKDAVFYGGIILVLFALAGEYIIYFFGISIEALEMAGGIILLLMAVEMIMEGNRPKSSGSEIVDYDIGIVPFATPMLAGPGAISLVIILMKGPIIAKIYTIISIAIIFAMVYIFFKWSSVVSKFIGAKVMKAISRIFGLLLAGFAIQYFIDAIVALSLLK”, the protein production entry was “failed”.

With “MNTLKKAFEILDFIVKNPGDVSVSEIAEKFNMSVSNAYKYMVVLEEKGFVLRKKDKRYVPGYKLIEYGSFVLRRFNIRDIAHDHLVDIMKRTGETVHLILKDGFEGVYIDKVEGEQSIPMVSRLGMKVDLYSTASGKSILAFVPEKELKEYLKIVELKPKTPNTITNPRVLKRELEKIRKRGYAVDNEENEIGIMCVGVPIFDHNGYPVAGVSISGVARKFTEEKIEEYSDVLKEKAEEISRKLGY”, the protein production entry was “not failed”.

As for “RMPTRRWAPGTQCITKCEHTRPKPGELAFRKGDVVTILEACENKSWYRVKHHTSGQEGLLAAGALRER”, the protein production result is reported as “not failed”.

“MMAIQRVGIIGAGKVGIVLAGLALDAGYTVRISGSGSVKKIALTIKTLVPGAIASENADVVANSDIILLAIPLSRYKNIDADLLKGKLVIDAMNYWWETDGIREEVLDPSTTSSEQVQTYFKDAKIVKAFNHMGYHNLQEEARPKGDPKRKALFVTGNDPEAVATVAAFVDHMGFDTVVHNNLADGIMTEPGSPLFGASLRYAELKDIIDHFDQTEFGKEVAAQTHK”: the protein production entry is given as “failed”.

As for “MLGLVLLYVGIVLISNGICGLTKVDPKSTAVMNFFVGGLSIICNIVVITYSALHPTAPVEGAEDIAQVSHHLTSFYGPATGLLFGFTYLYAAINHTFGLDWRPYSWYSLFVAINTIPAAILSHYSDMLDDHKVLGITEGDWWAIIWLAWGVLWLTAFIENILKIPLGKFTPWLAIIEGILTAWIPAWLLFIQHWV”, the protein production entry was “failed”.

As to “MSFSYGLAVPFVPTLVLLPQTSAAHVQRIRGGNILSLIDQPPPVVPTLTPPPQQARSGIRINKVTSSYAGLLTSVKEAGLLERCRRDYLLLLTLLVIAGAGVLVAFFFVGDSWLQLVVAAALGIVFTQFALFGHEAAHQQVFTSRAANEWAARLIATLMVGMSYAYWTDKHSRHHARPNVVNRDPDIAPGAIVFHNEVPTNRGRFSRAYGKRQGYLLFPLLLFLGWTLHIDSLKYLLKRGPVKFRWLELGLLGVRFGTYIGLLFLVLSPGIAVAFIGVQVAVFGLYMGGTFAPNHKGMPILPADSRADFLSRQVLTSRNITGGGFVTFLMGGLNYQIEHHLFPDMPRRHLREASQLVKAHCVRTGIPYTETSLMRSYSIVIRYLNTVGLAAADPFTCPLAGQHRP”, the protein production result is reported as “failed”.

On to “MAQKENNIIPMIFDEAFYRKMATQKWRQQDYKKAAEYYEKVLELSPKDFDIQQHYAQCLVKLNIGKKAERLFYENIVKDFHVAESFYELSQLNIELNEPNKAFLFGINYVILSEDKDFREMLEKTFEVAYTNEQKIELEAQLFSTQLLFQFLFSQGRLEEARTYILNQSYEIQQHRVIRNLLAMCYLYLGEYDSAKAMFEELLKEDNSDVHALCHYTLLLYNKKETEKYQKYLKILNKVVPLNDDETFKLGIVLSYLKQYRASQNLLYPLYKKGKFVSIQMYNALSFNFYYLGNKDESIEMWNKLTQISKVDVGYAPWVIEESKTVFESRVLPLLLDDNNHYRLYGIFLLHQLNGKEILMTEDIWSILESMNDYEKLYLTYLVQGLTLNKLDFIHRGMQRLYNFKKFKYNTSLFTDWINQAEMIISENVDLVDVDRYVAAFVYLSYRRSSQPLTKRQLMDDFNVSRYKLNKAIEFILSI”, for which the protein production result is “failed”.

For the sequence “MAAHLEEQQELDNFKYFWKTTGKWLFALLILAALGYLGYTVYQNRKVSQNQEAAAVLANIVEKAQSKAPQSEINAELTKLQQSYPHSISAAQATLMAAATEFDAQRYDVAEGHLKWVLSNQKDSLIQALAAQRLGVVLLQQKKYDAALAALDTPVEADFAPLLMETKGDVYAAQGKSQEALKNYGQALEKMPQDSVGRELVQMKLDSLK”, the protein production entry is listed as “failed”.

As to “LRASEESFRQAFEYAPSGMAIAEMGGDQHGRILRTNDALCRLLGRPASAMRRYSFSDLVHPEDIGTLLRTSAEGGRAELRLGRRDGTYVWVSLRNSVVADAADGPRFLLTHVEDIEERKRRELQLAHRASHDSLTGLPNSAELRSRLSARLCRRPQSAELGAVESLDAAYAHGQYTTEHPAAYDTSGHGEQPGHGHGFDFTQGPGPYDAFDHHVHTVAPEGQTDDGTKGLAVLFCDLDGFKSINDRFGH”, the protein production result is recorded as “failed”.

Consider “MYNREGIQGHILSFIDFSKASTFLDIGCGKGNDLIEISNRTCKEAKLYGVDVKANLIEFAKMQTEGDCRFTFNVYDVEDGLKFEDESIDVIISCNVLECIKNKSKLLHEIHRVLKPDGKIIMAHFDWDTQIFNAFDKNLYRKLIHTYSDWQQPWMNDCDAWMGRRISGVFNETGLFSGNIFTYVVTESEYKEGFRGYSLINEEFKALVEKGIIKNTEFELFKDQIIQLEKTGHYFYSVNLYTYVGQKK”, for which the protein production result was “failed”.

As for “MEKYIHSVEDYHRLISYLENNLNYEDSVVNHVIYVIAKTGMRYGEIIGLTNNDTSLDEHYLHTYKRYNTSTWKWTNAKNESSKRYIPIDDKIVAALSNMIKERERINSLLRIKNKEEFLFFHYGLEHGIPSVATVNKALKKILKKLDIEPIITTKGLRHTYGSYLLHNNIDMGVVARILGHKDIQMLIQVYGHTLTEKIDKEFKEVEQIMNRILEHHHHHH”, the protein production result was “failed”.

With “MMRVKFNGKELDTDFKTSLEFFENISKNENDVWIINGFATKENIALNENDELFCIEKNTLPPKDALDAMMRARHTPKLHDKLKNGRVAVCGLGGLGSHIAINLARSGVGYLKLIDFDVIEPSNLNRQAYRVSDLGKFKTEALKEQISEINPYISVEICTLKIDEDNLESLFKDIDIVCEAFDSAIAKAMIAQNFHRFYKDGILICASGLAGYGDSNSIQTRKIAKNFYVCGDLVNGAKLGNGLMAPRVNICAGHQSNLVLELLANKELEHHHHHH”, the protein production entry is “not failed”.

On to “MSQIEAVFFDCDGTLVDSEVICSRAYVTMFRQFGITLELTEVFRRFKGVKLYEIIDTISKEHGVALAKAELEPVYRAEVARLFDTELEAIAGANTLLESIKTPMCVVSNGPVSKMQHSLGKLGMLHHFPDLLFSGYDIQRWKPDPALMLHAANAMKVNVEKCILVDDSSAGAQSGIAAGMEVFYFCADPHNKPIDHPNVTTFTDLAQLPGLWKARGWEI”, for which the protein production result is listed as “not failed”.

For the sequence “MTRNDSGDLISRNDSTNHMNTTQPQKMLPEATFSDRMLEIGIKYKKQLTALVVVICLAAGGTLFWMQKTKVDEVQASLALAKITPWIEMGDVNKAVNGEGSIKGLNSIIKTWGGTPSGKTARLYMAYILLNSGKPDDALSIYKGFSSDNKDLQASALAGAAACHVQKKAFAEAAPEYEKASETAENETLKSMYLTKAAESYSAAGQADKAAKLYDQVIKTWPATSSAGMAQRALLRLAGAGVQIPQI”, the protein production result is reported as “failed”.

Consider “MNDTYQPINCDDYDNLELACQHHLMLTLELKDGEKLQAKASDLVSRKNVEYLVVEAAGETRELRLDKITSFSHPEIGTVVVSES”, for which the protein production result is reported as “not failed”.

“MTKACEANKSFLQSAVDKKEYSRTLLVDDGSDEGARSAGAFRPTPHRKGHGGRSPRRDQSPRRDSPQTASRTRLSSELIADLLQKKRERPTRSSSFPKRDKTIARTDRSPRSSPLPRSMGPPPPVIASPSSRSWGERPVGVQILTRRV”: the protein production result is “failed”.

“MLDSFEILKALKSLDLLKNAPSWWWPNALKFEALLGAVLTQNTKFEAVLKSLENLKNAFILENDDEINLKKIAYIEFSKLAECVRPSGFYNQKAKRLIDLSKNILKDFQSFENFKQEVTREWLLNQKGVGKESADAILCYVCAKEVMVVDKYSYLFLKKIGIEIEDYDELQHFFEKGVQENLNSALALYENTIPLAQLYARFHGKIVEFSKQKLELKL”: the protein production entry is listed as “failed”.
